Laboratory results reported in publication PMC12808120.
pKd: −log10 of the molar value.

How the values were obtained:
IGF2BP3 (recombinant) [1] = target: IGF2BP3 (recombinant) (UniProt O00425); test: filter binding; details: FBA/EMSA: 10 mM Tris-Cl pH 7.5, 50 mM KCl, 1 mM EDTA, 0.05% Triton X, 5% glycerol, 1 mM DTT, 37 C 20 min, pull-down: lysate mixed 1:1 with 2x TENT (100 mM Tris …)
IGF2BP3 (recombinant) [2] = target: IGF2BP3 (recombinant) (UniProt O00425); test: EMSA; details: no binding up to 100 nM; Kd >>100 nM; FBA/EMSA: 10 mM Tris-Cl pH 7.5, 50 mM KCl, 1 mM EDTA, 0.05% Triton X, 5% glycerol, 1 mM DTT, 37 C 20 min; pull-down: lysate mixed 1:1 with 2x TENT (100 mM Tris …)

Chain of IGF2BP3 (recombinant) (O00425 whole entry): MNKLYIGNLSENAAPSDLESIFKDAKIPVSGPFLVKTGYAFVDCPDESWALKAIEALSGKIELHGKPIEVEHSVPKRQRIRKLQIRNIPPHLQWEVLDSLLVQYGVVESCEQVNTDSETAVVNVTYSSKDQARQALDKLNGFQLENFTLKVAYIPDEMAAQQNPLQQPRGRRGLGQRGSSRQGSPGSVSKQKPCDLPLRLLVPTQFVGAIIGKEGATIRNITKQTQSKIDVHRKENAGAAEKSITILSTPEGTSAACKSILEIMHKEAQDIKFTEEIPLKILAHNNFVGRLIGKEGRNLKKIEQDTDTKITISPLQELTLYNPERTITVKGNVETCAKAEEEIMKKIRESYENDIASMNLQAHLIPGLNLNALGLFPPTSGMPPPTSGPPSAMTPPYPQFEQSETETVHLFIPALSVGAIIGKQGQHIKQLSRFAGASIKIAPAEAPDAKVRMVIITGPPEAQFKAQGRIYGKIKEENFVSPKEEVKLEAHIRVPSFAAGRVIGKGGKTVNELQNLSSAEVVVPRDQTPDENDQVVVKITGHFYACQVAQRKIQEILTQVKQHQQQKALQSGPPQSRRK

Substance “FMR1-5'UTR RNA with 16 CGG repeats (FMR1-16CGG)” has a pKd (IGF2BP3 (recombinant) [1]) of 8.50.

For “UAAUAAUAAUAAUAAUAAUAAUAAUAAUAAUAAUAAUAAUAAUAAUAAUAAUAAUAAUAA [(UAA)20 RNA]”, the pKd (IGF2BP3 (recombinant) [2]) was less than 7.00 and the pKd (IGF2BP3 (recombinant) [1]; no binding up to 100 nM, Kd >>100 nM) was less than 7.00.
